The target in the assay is T1, Shank1-PDZ (UniProt Q9WV48, residues 654-768) (UniProt Q9WV48 654-768).
T1 construct: Shank1 PDZ domain, UniProt Q9WV48, residues 654-768; 100% identical with the human homolog Q9Y566 residues 654-768; also called Shank-PDZ; source: production and purification by the protocol of Sánta et al. 2022
T1 sequence (looked up): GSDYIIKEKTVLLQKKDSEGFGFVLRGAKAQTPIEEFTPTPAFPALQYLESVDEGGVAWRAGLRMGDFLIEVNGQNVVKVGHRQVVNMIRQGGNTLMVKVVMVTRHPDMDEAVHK
Description: BLI; BLItz instrument, NTA biosensors; His-tagged GKAP-Ct43 immobilised as bait at 200 nM; Shank1-PDZ at 4, 2, 1 and 0.5 uM; 50 mM NaPi pH 7.4, 20 mM NaCl, 20 mM imidazole, 0.1% BSA, 0.02% Tween20; room temperature (no temperature control); global fit, average of three independent measurements. As to conditions: both partners purified. For orientation: In BLI a coated tip is dipped into the sample, and binding shifts an interference pattern.

Here are results for 1 molecule from publication PMC12589307, “^1H, ^13C, and ^15N resonance assignment of the C terminal region of the disordered postsynaptic scaffold protein GKAP” (Biomolecular Nmr Assignments, 2025).

Where no end group is shown, it is not given here.

B1: GKAP-Ct43, C-terminal 43 residues of Rattus norvegicus GKAP, with 6xHis tag kept (domain or fragment)
chain: GSHMSSQRQEARKRLMAAKRAASVRQNSATESAESIEIYIPEAQTRL
modifications: also: 6xHis tag named, not in given chain
notes: vector-derived residues that remain N-terminal after TEV cleavage; in the uncleaved BLI construct they follow the 6xHis tag and the TEV site; Guanylate kinase-associated protein GKAP (rGKAP1a), Rattus norvegicus, UniProt P97836, residues 950-992; 100% identical to human DLGAP1 O14490 residues 935-977; Modified pET-15b vector with 6xHis tag and TEV site; also called rGKAP1a C-terminus; source: TEV …
On to B1, for which binding was put at a Kd of 3.1 ± 0.7 µM.
